Experiment: soluble on expression in E. coli; label from the status in PepcDB or PDB records
For “MAHHHHHHMNEKGNFMKKAYKNNNIQLSENQINQRIKNVNLTKRLICYERYLKAIPKIERRNDLKNSWHPETPRYNKQISLSQWNKELKKWRKQIHAWGNISEEDHRYICKLSYTDKYKYLCNLKMPELSNLEIKNMKKENEEISHDILKHILLIQNKHNNPFDENDKIMYQPIFFLPENFSGTVVHNEFVIIKEQNMEKYLTLLKDKYKDKYNYCFKKYYELYLLNKDSDNKNVENSKNTIPKNGKNHIVIYLGKETKPLNYKNKEAQYEQKEKMEAYNFLCGSTKKYENHNKMNKRKKF”, the “soluble on expression in E. coli” value was “not soluble”. In the case of “MAHHHHHHMNFIKAEEKDKCAEEQGVKLFYLKSCKEKEYELHMDVCQAIVEDCPLLEVYVVSRGDGSSESGAFELYDNGQLIKKFTNCNVSTVTSFIRKYAQKGGSSPMEATQSGELNSTGKTDTVKKIEHLIGSNKIILFMKGSKTFPQCKFSNAVVFMLNSCKVKYTTYDILQDEDVRSELKIYSNWPTYPQLYINAELIGGHDIIKSMYDSGELRDVVPQDCFEG”, the “soluble on expression in E. coli” value is reported as “soluble”. For “MAHHHHHHMNGNHGEPGTERENRSSADEAPKGDAFFDPSAEQYLVISPRQKLNPVLKKINRVRYKFSNIIPDFLIGKNNACLFISMKYHRLRSNYLKARIETLSNKYSNRILLCLVDIENIENSLGEINQLAFCFNMTLILCWSTEECARVIEDFKIYEKKISYIRNNKLTSTHAEKIHELLKKIRCINSSDCATITNKFKSFKNIVTAKKDDLINCSGLGNKKIQALISAFNDPFF”, the “soluble on expression in E. coli” value was “soluble”. In the case of “MAHHHHHHMNHSPFLTALYTDVQSRLPLWTTRYVKPISNGTFAVSSTWTDDSGAQLQRLFIAVEASDTNCISEAVLAEWIAFVEAWQAAHKEDEVSCFVGFVDLAGTVSYYRCETAVAGAWRSKPDDHLTCR”, the “soluble on expression in E. coli” value is reported as “not soluble”. In the case of “MAHHHHHHMNKHICIYGGSFDPITHAHEMVLAEVSSLDWVDEIWVVLCRCRNDKHLTEFQHRHNMFSLIMNNNSPKMLKNKIFLKDIECKETTTPTYDLLKMQKEKYPNYTFYFTIGSDLLNDIFFWDNGEKLVAENNFIIVERGNFKIDENVLKKFPSYYLIKIENMSFINYISSSDARKMLSQKNNSEDLQKYIHPVIINYIKEHDLYDNNSA”, the “soluble on expression in E. coli” value is reported as “soluble”. In the case of “MAHHHHHHMNNLTLGDSNICGTFNKLPFIESYYNRKGILLKSYSWLVKNAIGIIVLVHGLSAHLRLQYLKLNVNVVNNDYATLIDADNYYIYEDSWIEEFNKNGYSVYGIDLQGHGESDGLDKLPLHINNFDDYVYDIIDYMRRINNSIVLEKSMQKSTSNKYTIENREELLPMYLVGLSMGGNIVLRTLEILGKSNEINSNLNIKGCISLAGMISVRMVGSIDSIKYKYFYLPVMKIFSRYFPTFRPGKKKFKFEKYPFVNDLLFYDKYRFKGRITNNLAREILVALDNLHNNIDDIPKNIPILFIHSINDCLCWYEGTVSFYNKLQIDNKELYTLEDMDHVISMEPGNENVLKKILEWISNLYVQ”, the “soluble on expression in E. coli” value is reported as “not soluble”. With “MAHHHHHHMNVLTSHTHLHMRRSCCMATARGCLGNIRTSDVSTRRCKGDYGFNIFHNSNPQHGASYARHERRMREDEVEDFLKSVKGWVPVDECFPCVDADADAEGADARKEEKEEMGPAPLTIFTGEGALKRDFDFANFRDAYLFMGRLWAFCYGSDKYPNVTWEGTRITVYIYSPSFRGLSKREARLAAFLNDQYNMFKKSKRQQKVIIDGVVKRSVIEDMMGECVAEALKRREEERQKPLAETVEGIATSWEAVLSKDGNNNNNDGTPSSCTSP” the “soluble on expression in E. coli” value was “not soluble”. With “MAHHHHHHMPAAVPVRTPPYLVDVAANLTDCVFRGVDWKSNRLHDDDFDYVLARAQERNVQQIIITGTSLAQSVKAIALCRRYPDRRLLCTVGVHPAHCGEFLRPLDRDEVQRVAESASSVVMPHHEKSAAAMTAEREEAWAQERLDYLVDLATRNRDVVVAMGEIGIDYAEVACCPREVQEKYFARQLTAFAPLQLPFLFHSRACGMMFVSHLQDTWTRIASDAAATEAVADNAGASSPSPHAQLRGVVHSFNGTLEEQEALLSMGLYLSLNSSAFREASLAAQVALIPLGRLMFETDAPWCDVRSKDYGAQFVRTVFKTIKRKKPFEMGACLERRNEPCHLVQVMEEYLGCAKASATSPEDPLSRMDEATLVAAVYENCKRLFQL” the “soluble on expression in E. coli” value was “not soluble”. For “MAHHHHHHMPFVVTHPPDTAELVEGEPFYSLAMYTLLSSTTDVVPALRNFTFQLRAFNVLPPYDAVGLLSGIDSTGLIVWGGALGFLEWLVQHPDRLQARMRNVSKAQAHVIELGCGSGVVAVALCALLRGLDLPDLVEKSISSSPAVCVWATDGNPECVSLAERNLRAQLKEPCTSCPGVAASAALLRWGDAAAVQEALQTSFPGCTAASSITVVAADVLYDAAVVPLLVSTVAEIARVHVAGAGPSTLPGSVEWWLAYTPRSLTRALNEAIFQALLDSIADHGWTYELVDLPAGAVATGFEENPDCSVPALSGCILVVQVTCDTRS”, the “soluble on expression in E. coli” value was “not soluble”.

Reference: the DeepSol protein solubility set
